Tests used:
Assay in all cases: RIA, competition with 125I-Ang-(1-12)
[1] = target: T1, purified human angiotensinogen (AGT) protein (human, UniProt P01019 25-476)
T1 construct: also called human AGT
T1 sequence (looked up): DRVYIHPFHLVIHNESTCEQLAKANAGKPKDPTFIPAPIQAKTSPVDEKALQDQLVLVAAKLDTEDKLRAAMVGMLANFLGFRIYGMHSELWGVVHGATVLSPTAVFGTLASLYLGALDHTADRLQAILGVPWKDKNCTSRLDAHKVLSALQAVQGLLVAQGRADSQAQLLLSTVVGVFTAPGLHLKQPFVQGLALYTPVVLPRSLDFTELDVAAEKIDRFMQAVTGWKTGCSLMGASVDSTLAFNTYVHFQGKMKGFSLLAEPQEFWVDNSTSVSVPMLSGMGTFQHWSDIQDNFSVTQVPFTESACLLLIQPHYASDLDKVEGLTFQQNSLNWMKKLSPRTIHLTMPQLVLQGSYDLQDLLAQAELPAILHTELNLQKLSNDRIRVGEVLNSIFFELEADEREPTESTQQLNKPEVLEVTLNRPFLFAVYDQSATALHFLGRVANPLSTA
Procedure: (§1) h-Ang-(1-12) Specificity and Cross-reactivity Assays: For specificity, a synthetic non-radiolabeled h-Ang-(1-12) standard (purity≥98%) was used. Briefly, 200 μL of the RIA buffer (50 mM PBS, 25 mM EDTA, 0.5% triton X-100, 0.05% sodium azide and 0.5% BSA, pH 7.4) containing 50 μL of mAb (1:2,000 dilution of IgG concentration 1.3 mg/mL), 50 μL of 125I-Ang-(1-12) [6-8 fmoles/tube, purity>99%] and 50 μL of different concentrations of non-radiolabeled human Ang-(1-12) peptide (0 to 10,000 fmol/0.2 mL RIA tube) were combined and the RIA tubes were incubated overnight for 20-22 hours at 4° C. At the end of incubation period, 50 μL of 1% γ-globulin were added, mixed, and the bound/free (B/Bo) forms of h-Ang-(1-12) were then separated by precipitating the bound (B) fraction with 200 μL of 23% polyethylene glycol (PEG). The bound and unbound (Bo) traces were separated by centrifuging the tubes at 3,000 rpm for 30 min at 4° C. The radioactivity corresponding to the antibody-bound antigen in the precipitate were measured in a PerkinElmer Wizard2 Gamma Counter. The binding data were analyzed and graphed using a statistical program (GraphPad Prism 8). To examine the cross-reactivity of the mAb with human and rat AGT or AGT-derived angiotensin peptides, several fold higher concentrations (AGT up to 10,000 fmol and angiotensin peptides up to 5,000 fmol) were used. Briefly, in a total of 200 μL of RIA buffer we added 50 μL of h-Ang-(1-12) mAb (1:2,000 dilution), 50 μL of ¹²⁵I-Ang-(1-12) and 50 μL of non-radiolabeled angiotensin peptides [Ang I, ([…]; SEQ ID NO:20); Ang-(1-9), ([…]; SEQ ID NO:23); Ang II, ([…]; SEQ ID NO:21); Ang-(1-7), (DRVYIHP; SEQ ID NO:22) and rat Ang-(1-12), ([…]; SEQ ID NO:24)] or purified AGT protein (10,000 fmol per RIA tube) and after mixing the contents, the RIA tubes were incubated overnight (20-22 hours at 4° C.) and processed as described above.

Ang-(1-9) = target: Ang-(1-9)
Procedure: as §1

[2] = target: T2, purified rat angiotensinogen (AGT) protein (rat, UniProt P01015 25-477)
T2 construct: also called rat AGT
T2 sequence (looked up): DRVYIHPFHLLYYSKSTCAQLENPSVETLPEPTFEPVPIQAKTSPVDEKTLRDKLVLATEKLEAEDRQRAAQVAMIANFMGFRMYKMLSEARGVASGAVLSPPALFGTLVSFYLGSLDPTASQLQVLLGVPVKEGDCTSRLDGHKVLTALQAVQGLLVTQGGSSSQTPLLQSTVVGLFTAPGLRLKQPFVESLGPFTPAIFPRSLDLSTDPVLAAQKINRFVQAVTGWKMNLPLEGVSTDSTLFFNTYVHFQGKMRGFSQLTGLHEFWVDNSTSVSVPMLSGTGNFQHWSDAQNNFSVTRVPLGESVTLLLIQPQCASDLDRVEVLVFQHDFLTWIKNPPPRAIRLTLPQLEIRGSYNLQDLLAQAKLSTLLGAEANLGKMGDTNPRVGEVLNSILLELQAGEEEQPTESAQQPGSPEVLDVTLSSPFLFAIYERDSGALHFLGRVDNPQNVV
Procedure: as §1

Angiotensin-(1-7) = target: T3, Angiotensin-(1-7)
T3 construct: also called Ang-(1-7)
T3 peptide: DRVYIHP
Procedure: as §1

B1: h-Ang-(1-12) monoclonal antibody, Clone# 14B3 (Protein L purified mAb IgG) (antibody, V domains shown)
VH: DVQLQESGPGLVKPSQSLSLTCTVNGYSITSDFAWNWIRQFPGNKLEWMGYISYSGNTYYNPSLKSRISITRDTSKNQFFLQLNSVTTEDTATYYCARGSYYFDYWGQGTTLTVSS
VL: DIVMSQSPSSLAVSAGEKVTMSCKSSQSLLNSRTRKNYLAWYQQKPGQSPKLLIYWASTRESGVPDRFTGSGSGTDFTLTISSVQAEDLAVYYCKQSYNLRTFGGGTKLEIK
notes: also called Ang-(1-12)-mAb; h-Ang-(1-12) mAb
binding result [1]: no binding (tested: AGT up to 10,000 fmol) | binding result (Ang-(1-9)): no binding (tested: angiotensin peptides up to 5,000 fmol) | binding result [2]: no binding (tested: AGT up to 10,000 fmol) | binding result (Angiotensin-(1-7)): no binding (tested: angiotensin peptides up to 5,000 fmol)

Source: patent publication US20220306756A1 (WAKE FOREST UNIVERSITY HEALTH SCIENCES, published 2022)
